Measurements reported in patent US20250333531A1 (NORDIC NANOVECTOR ASA, published 2025).
Substitutions are numbered along the chain they refer to.

T1: human CD37 (human, UniProt P11049 1-281)
T1 construct: whole, on cells; also called CD37 antigen
T1 sequence (looked up): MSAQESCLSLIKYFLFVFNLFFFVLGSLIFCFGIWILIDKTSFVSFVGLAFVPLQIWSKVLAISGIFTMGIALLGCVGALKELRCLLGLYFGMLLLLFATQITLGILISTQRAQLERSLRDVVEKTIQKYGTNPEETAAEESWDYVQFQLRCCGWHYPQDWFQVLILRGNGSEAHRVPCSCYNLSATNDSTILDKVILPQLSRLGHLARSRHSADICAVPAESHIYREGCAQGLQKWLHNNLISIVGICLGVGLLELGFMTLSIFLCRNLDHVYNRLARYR

T2: biotinylated truncated soluble human FcγRIIa-R131 (human, UniProt P12318 34-217, biotinylated)
T2 construct: extracellular domain; Bought
T2 sequence (looked up): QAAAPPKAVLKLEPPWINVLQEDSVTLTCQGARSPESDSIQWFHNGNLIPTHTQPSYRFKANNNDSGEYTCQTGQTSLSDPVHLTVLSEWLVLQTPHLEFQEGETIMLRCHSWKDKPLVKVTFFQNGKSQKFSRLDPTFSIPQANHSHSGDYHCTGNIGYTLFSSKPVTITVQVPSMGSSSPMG

T3: biotinylated truncated soluble human FcγRIIa-H131 (human, UniProt P12318 34-217, biotinylated)
T3 construct: extracellular domain; Bought
T3 sequence (looked up): T2 sequence (looked up) with R134H

T4: biotinylated truncated soluble human FcγRIIb (human, UniProt P31994 43-217, biotinylated)
T4 construct: extracellular domain; Bought
T4 sequence (looked up): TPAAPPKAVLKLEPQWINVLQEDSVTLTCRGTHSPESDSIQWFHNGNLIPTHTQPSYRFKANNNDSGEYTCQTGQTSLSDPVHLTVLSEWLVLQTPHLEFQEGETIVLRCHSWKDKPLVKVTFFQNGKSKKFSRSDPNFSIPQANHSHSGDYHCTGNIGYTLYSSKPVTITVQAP

B1: NNV025 (antibody, human IgG1, kappa)
heavy: not shown
light: DIQMTQSPSSLSASVGDRVTITCKASQDVSTAVDWYQQKPGKSPKLLINWASTRHTGVPSRFSGSGSGTDYTLTISSLQPEDFATYYCRQHYSTPFTFGQGTKLEIKRTVAAPSVFIFPPSDEQLKSGTASVVCLLNNFYPREAKVQWKVDNALQSGNSQESVTEQDSKDSTYSLSSTLTLSKADYEKHKVYACEVTHQGLSSPVTKSFNRGEC
notes: Humanized IgG1 kappa; also called AH02871HC + AH02877LC; AH2871HC_2877LC
B2: AH02871 (antibody, human IgG1, kappa, V domains shown)
VH: QVQLVQSGAEVVKPGASVKVSCKASGYSFTDYNMYWVKQAPGQRLEWMGYIDPYNGDTTYNQKFKGRVTITRDTSASTAYMELSSLRSEDTAVYYCARSPYGHYAMDYWGQGTLVTVSS
VL: DIQMTQSPSSLSASVGDRVTITCKASQDVSTAVDWYQQKPGKAPKLLINWASTRHTGVPSRFSGSGSGTDYTLTISSMQPEDFATYYCRQHYSTPFTFGQGTKLEIKR
notes: Humanized IgG1 kappa; also called NNV026; NNV020 #1
B3: AH02886 (antibody, human IgG1, kappa, V domains shown)
VH: B2 VH with V11L, V12K, I70L, R72V
VL: B2 VL with A13T, M78L
notes: Humanized IgG1 kappa; also called NNV027; NNV020 #5
B4: rituximab (antibody, human IgG1, kappa)
chain 1: not shown
chain 2: QIVLSQSPAILSASPGEKVTMTCRASSSVSYIHWFQQKPGSSPKPWIYATSNLASGVPVRFSGSGSGTSYSLTISRVEAEDAATYYCQQWTSNPPTFGGGTKLEIKRTVAAPSVFIFPPSDEQLKSGTASVVCLLNNFYPREAKVQWKVDNALQSGNSQESVTEQDSKDSTYSLSSTLTLSKADYEKHKVYACEVTHQGLSSPVTKSFNRGEC
B5: DuoHexaBody-CD37 (bispecific antibody, human IgG1, kappa)
heavy 1: not shown
light 1: YDMTQSPSTLSASVGDRVTITCQASQNIIDYLAWYQQKPGKAPKLLIHKASTTLASGVPSRFKGSGSGTEFTLTISSLQPDDFATYYCQQGYSNSNIDNTFGGGTKVEIKRTVAAPSVFIFPPSDEQLKSGTASVVCLLNNFYPREAKVQWKVDNALQSGNSQESVTEQDSKDSTYSLSSTLTLSKADYEKHKVYACEVTHQGLSSPVTKSFNRGEC
heavy 2: not shown
light 2: DVVMTQSPSTLSASVGDRVTITCQASQNIDSNLAWYQQKPGKAPKFLIYYASNLPFGVPSRFKGSGSGTEFTLTISSLQPDDFATYYCQSADVGSTYVAAFGGGTKVEIKRTVAAPSVFIFPPSDEQLKSGTASVVCLLNNFYPREAKVQWKVDNALQSGNSQESVTEQDSKDSTYSLSSTLTLSKADYEKHKVYACEVTHQGLSSPVTKSFNRGEC
B6: NNV003 (antibody, human IgG1, kappa)
heavy: not shown
light: DIVMTQSHKLLSTSVGDRVSITCKASQDVSTAVDWYQQKPGQSPKLLINWASTRHTGVPDRFTGSGSGTDYTLTISSMQAEDLALYYCRQHYSTPFTFGSGTKLEIKRTVAAPSVFIFPPSDEQLKSGTASVVCLLNNFYPREAKVQWKVDNALQSGNSQESVTEQDSKDSTYSLSSTLTLSKADYEKHKVYACEVTHQGLSSPVTKSFNRGEC
notes: Mouse/human IgG1 kappa chimera of lilotomab; also called chHH1; chimeric HH1
B7: TCMC-NNV003 (antibody, human IgG1, kappa)
heavy: not shown
light: B6 light
modifications: TCMC chelator conjugate; sites not stated; TCMC chelator conjugate (GGG-TCMC); sites not stated
notes: chains are those of NNV003; also called NNV003-TCMC; NNV003-GGG-TCMC
B8: AH02877 (antibody, human IgG1, V domains shown)
VH: B2 VH with V68A, I70L, R72V, M81I
VL: B2 VL with A43S, M78L
notes: Full-length human IgG1 kappa; constant domains from NNV003; also called NNV020 #3
B9: AH02875 (antibody, human IgG1, V domains shown)
VH: B2 VH with V2I, V11L, V12K, K38R, V68A, M81I
VL: B2 VL with A43S
notes: Full-length human IgG1 kappa; also called NNV020 #2
B10: AH02879 (antibody, human IgG1, V domains shown)
VH: B2 VH with V2I, M48I, V68A, I70L
VL: B2 VL with A13T, A43S
notes: Full-length human IgG1 kappa; constant domains from NNV003; also called NNV020 #4

Assays:
[1] = biological target: T1, human CD37; assay: competitive radioligand binding on Ramos cells against 177Lu-NNV009 (2.7 nM), gamma counting
Experimental: (§1) The Eppendorf LoBind tubes 1.5 mL were used to prepare dilutions (working concentrations) of Abs. As much as 0.2 mL of the cell suspension (800 000 cells/tube), after it has been cooled down for 30 min on ice, was aliquoted to glass 12×75 mm counting tubes. Each tube was pre-labeled with a code specifically determining each sample. The tubes with cells were maintained on ice for whole time course of the experiment except for the time when counted on the gamma counter. The tubes were agitated on a planetary shaker at 350 RPM, 4° C. (on ice) for 15 min. […] The tubes were placed on the planetary shaker (GL 064), on ice, and shaken for 4 hours at 350 RPM. After 3.5 hours past from the beginning of incubation, the samples were assayed on Wizard2 gamma counter using protocol “Lu-177 General” (all detectors except for the detector #3 were used). Upon completion the counting, the cells were washed with ice-cold 0.5 mL 0.5% BSAPBS three times. All the tubes were assayed on the Wizard2 gamma counter again using the same sequence and parameters as before the washing.

[2] = biological target: T1, human CD37; assay: competitive radioligand binding on Ramos cells; ratio to Ki of NNV009 (assumed 2.3)
Experimental: as §1

[3] = biological target: FcγRIIIa-V158 on Promega Jurkat effector cells (UniProt P08637 17-254, limits assumed); assay: cell-based or functional assay
[4] = biological target: T2, biotinylated truncated soluble human …; assay: ELISA: IgG coated at 10000-4.5 ng/ml, biotinylated truncated soluble human FcγRIIa-R131 250 ng/ml pre-complexed with AP-streptavidin, absorbance 405 nm
Experimental: (§2) 96 well EIA/RIA plates (CorningCostar) were coated with 100 μl titrated amounts of IgG variants (10.000-4.5 ng/ml) diluted in PBS and incubated O/N at 4° C. Remaining surface area were blocked with PBS containing 0.05% T and 4% S for 1 h at RT. The plates were washed four times with PBS/T using a Hydrospeed™ plate washer (Tecan). […] Following washing as above, bound receptor was visualized by addition of phosphatase substrate (1 mg/ml in diethanolamine buffer) (Sigma Aldrich). The plates were developed for 15-20 min before the 405 nm absorption values were recorded using a TECAN Sunrise spectrophotometer (Tecan).

[5] = biological target: T5, biotinylated soluble human FcRn (human, UniProt P55899 24-297; P61769 21-119, biotinylated); assay: ELISA: IgG coated at 1000-0.45 ng/ml, biotinylated soluble human FcRn 250 ng/ml pre-complexed with AP-streptavidin, pH 6.0, absorbance 405 nm
T5 construct: extracellular domain; Bought; Beta-2-microglobulin is not mentioned; Used as preformed complex with AP-streptavidin
Experimental: Remaining surface area were blocked with PBS containing 0.05% T and 4% S for 1 h at RT. The plates were washed four times with PBS/T using a Hydrospeed™ plate washer (Tecan). […] Following washing as above with PBS/T or FcRn binding buffer ([…], 0.1 M NaCl, 0.05% T, pH 6.0), bound receptor was visualized by addition of phosphatase substrate (1 mg/ml in diethanolamine buffer) (Sigma Aldrich). The plates were developed for 20-30 min before the 405 nm absorption values were recorded using a TECAN Sunrise spectrophotometer (Tecan).

[6] = biological target: T6, human complement factor C1q (human, UniProt P02745 23-245; P02746 28-253; P02747 29-245); assay: ELISA: IgG coated at 20000-156.25 ng/ml, human C1q 360 ng/ml, detected with rabbit anti-human C1q and HRP anti-rabbit IgG (y axis printed as Absorbance 405 nm)
T6 construct: Bought
Experimental: (§3) Remaining surface area were blocked with PBS containing 0.05% T and 4% S for 1 h at RT. The plates were then washed four times with PBS/T using a Hydrospeed™ plate washer (Tecan). Human C1q (Complement Technologies) diluted to 360 ng/ml in veronal buffer (Complement Technologies) were added and incubated for 30 min at 37° C. Detection of bound C1q was performed using a primary anti-human C1q antibody from rabbit (DAKO) diluted 1:10.000 in PBS/T/S and a secondary horseradish peroxidase (HRP) conjugated anti-rabbit IgG antibody diluted 1:5000 in PBS/T/S (GE Healthcare). Binding was visualized by addition of 100 μl TMB substrate (Calbiochem) for 15-20 min before the enzymatic reaction was stopped by addition of 50 μl 1 M HC1. The 450 nm absorption values were recorded using a Sunrise TECAN spectrophotometer (Tecan).

[7] = biological target: T7, biotinylated truncated soluble human FcγRI (human, UniProt P12314 16-292, biotinylated); assay: ELISA: IgG coated at 10000-4.5 ng/ml, biotinylated truncated soluble human FcγRI 250 ng/ml pre-complexed with AP-streptavidin, absorbance 405 nm
T7 construct: extracellular domain; Bought; preformed complex with AP-streptavidin
Experimental: as §2

[8] = biological target: T3, biotinylated truncated soluble human …; assay: ELISA: IgG coated at 10000-4.5 ng/ml, biotinylated truncated soluble human FcγRIIa-H131 250 ng/ml pre-complexed with AP-streptavidin, absorbance 405 nm
Experimental: as §2

[9] = biological target: T6, human complement factor C1q; assay: repeat ELISA: IgG coated at 20000-156.25 ng/ml, human C1q 360 ng/ml, detected with rabbit anti-human C1q and HRP anti-rabbit IgG (y axis printed as Absorbance 405 nm)
Experimental: as §3

[10] = biological target: T4, biotinylated truncated soluble human …; assay: ELISA: IgG coated at 10000-4.5 ng/ml, biotinylated truncated soluble human FcγRIIb 250 ng/ml pre-complexed with AP-streptavidin, absorbance 405 nm
Experimental: as §2

[11] = biological target: T8, biotinylated truncated soluble human FcγRIIIa-F158 (human, UniProt P08637 17-208, biotinylated); assay: ELISA: IgG coated at 10000-4.5 ng/ml, biotinylated truncated soluble human FcγRIIIa-F158 250 ng/ml pre-complexed with AP-streptavidin, absorbance 405 nm
T8 construct: extracellular domain; Bought
Experimental: as §2

T7 sequence (P12314 16-292): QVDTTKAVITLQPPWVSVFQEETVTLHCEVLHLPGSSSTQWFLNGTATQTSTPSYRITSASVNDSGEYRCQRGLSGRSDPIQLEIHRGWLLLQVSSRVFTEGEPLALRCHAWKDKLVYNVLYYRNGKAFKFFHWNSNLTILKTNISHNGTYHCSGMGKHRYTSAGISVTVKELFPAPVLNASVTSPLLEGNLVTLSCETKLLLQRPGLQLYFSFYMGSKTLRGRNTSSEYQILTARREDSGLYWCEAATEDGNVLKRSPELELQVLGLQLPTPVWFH
T5 sequence (P55899 24-297 limits assumed, chain 1 of 2): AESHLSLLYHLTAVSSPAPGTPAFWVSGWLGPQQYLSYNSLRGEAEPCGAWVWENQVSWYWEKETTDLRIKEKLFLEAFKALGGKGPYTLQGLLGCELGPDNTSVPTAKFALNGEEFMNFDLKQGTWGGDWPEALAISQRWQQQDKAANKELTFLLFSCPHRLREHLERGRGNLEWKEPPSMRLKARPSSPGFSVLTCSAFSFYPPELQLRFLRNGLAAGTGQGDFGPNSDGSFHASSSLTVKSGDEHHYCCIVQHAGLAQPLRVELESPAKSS
T5 sequence (P61769 21-119 limits assumed, chain 2 of 2): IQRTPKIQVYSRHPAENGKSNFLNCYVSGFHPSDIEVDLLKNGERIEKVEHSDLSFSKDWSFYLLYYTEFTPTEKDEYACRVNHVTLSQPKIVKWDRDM
T6 sequence (P02745 23-245 limits assumed, chain 1 of 3): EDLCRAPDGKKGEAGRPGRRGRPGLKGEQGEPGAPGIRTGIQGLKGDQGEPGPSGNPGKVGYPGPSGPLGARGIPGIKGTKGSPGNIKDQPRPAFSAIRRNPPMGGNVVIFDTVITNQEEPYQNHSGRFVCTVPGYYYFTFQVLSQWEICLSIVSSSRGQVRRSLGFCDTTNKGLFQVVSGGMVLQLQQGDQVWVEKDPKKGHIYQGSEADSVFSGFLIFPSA
T6 sequence (P02746 28-253 limits assumed, chain 2 of 3): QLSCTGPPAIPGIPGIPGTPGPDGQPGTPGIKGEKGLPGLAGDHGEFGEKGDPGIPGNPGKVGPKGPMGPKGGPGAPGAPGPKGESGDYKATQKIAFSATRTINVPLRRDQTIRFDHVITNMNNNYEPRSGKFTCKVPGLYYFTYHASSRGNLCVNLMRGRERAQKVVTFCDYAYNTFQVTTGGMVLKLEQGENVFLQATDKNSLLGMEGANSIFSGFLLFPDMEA
T6 sequence (P02747 29-245 limits assumed, chain 3 of 3): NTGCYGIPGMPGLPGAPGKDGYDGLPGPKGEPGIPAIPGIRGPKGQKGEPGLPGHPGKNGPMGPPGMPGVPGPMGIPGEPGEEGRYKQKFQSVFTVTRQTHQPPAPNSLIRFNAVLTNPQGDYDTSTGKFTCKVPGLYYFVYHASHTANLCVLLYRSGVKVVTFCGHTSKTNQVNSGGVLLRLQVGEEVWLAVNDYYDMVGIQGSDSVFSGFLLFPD

Binder	EC50 [1]	Ki [1]	Ki(NNV009)/Ki(NNV020 var.) [2]	further results
B1	1.16 nM	0.533 nM	4.31 fold	–
B2	1.17 nM	0.539 nM	4.27 fold	–
B3	1.16 nM	0.535 nM	4.3 fold	–
B4	–	–	–	average potency of the ADCC response (Example 13) [3]: 21.3 nM; efficacy (Emax) relative to NNV024, ADCC FcγRIIIa-158V reporter assay [3]: 75%
B5	–	–	–	average potency of the ADCC response (Example 13) [3]: 0.9 nM; efficacy (Emax) relative to NNV024, ADCC FcγRIIIa-158V reporter assay [3]: 53%
B6	–	–	–	EC50 (read off the curve) [4]: ~0.8 µg/mL; EC50 (read off the curve) [5]: ~0.04 µg/mL; EC50 (read off the curve) [6]: ~3 µg/mL; EC50 (read off the curve) [7]: ~0.4 µg/mL; EC50 (read off the curve) [8]: ~0.3 µg/mL; EC50 (read off the curve) [9]: ~1 µg/mL; EC50 (read off the curve) [10]: ~0.7 µg/mL; EC50 (read off the curve) [11]: ~0.5 µg/mL
B7	–	–	–	EC50 (read off the curve) [5]: ~0.06 µg/mL; EC50 (read off the curve) [7]: ~0.4 µg/mL
B8	0.917 nM	0.422 nM	5.45 fold	–
B9	1.15 nM	0.528 nM	4.36 fold	–
B10	0.959 nM	0.441 nM	5.22 fold	–
